Patent US20240301049A1 (Ablynx, published 2024)

T1: cyno IL-6 (cynomolgus monkey, UniProt P79341 28-212, limits assumed)
T1 sequence (looked up): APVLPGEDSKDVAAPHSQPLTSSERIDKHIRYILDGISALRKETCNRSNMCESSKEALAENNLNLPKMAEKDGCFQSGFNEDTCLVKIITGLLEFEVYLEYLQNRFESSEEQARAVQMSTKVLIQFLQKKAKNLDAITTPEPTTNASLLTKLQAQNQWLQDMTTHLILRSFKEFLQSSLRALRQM

B1: F027200809 (bispecific antibody)
chain: EVQLVESGGGVVQPGGSLRLSCTASGFTFSTADMGWFRQAPGKGREFVARISGIDGTTYYDEPVKGRFTISRDNSKNTVYLQMNSLRPEDTALYYCRSPRYADQWSAYDYWGQGTLVKVSSGGGGSGGGSDVQLVESGGGVVQPGGSLRLSCAASGRTFSNYAMAWFRQAPGKEREFVAVISYAGGRTYYADSVKGRFTISRDNAKNTVYLQMNSLRPEDTALYYCAAVDSPLIATHPRGYDYWGQGTLVTVSSGGGGSGGGSEVQLVESGGGVVQPGGSLRLSCAASGFTFRSFGMSWVRQAPGKGPEWVSSISGSGSDTLYADSVKGRFTISRDNSKNTLYLQMNSLRPEDTALYYCTIGGSLSRSSQGTLVTVSSGGGGSGGGSEVQLVESGGGVVQPGGSLRLSCAASGFSLDYYGVGWFRQAPGKEREGVSCISSSEGDTYYADSVKGRFTISRDNAKNTVYLQMNSLRPEDTALYYCATDLSDYGVCSRWPSPYDYWGQGTLVKVSS
B2: F027200812 (bispecific antibody)
chain: DVQLVESGGGVVQPGGSLRLSCAASGRTFSNYAMAWFRQAPGKEREFVAVISYAGGRTYYADSVKGRFTISRDNAKNTVYLQMNSLRPEDTALYYCAAVDSPLIATHPRGYDYWGQGTLVTVSSGGGGSGGGSEVQLVESGGGVVQPGGSLRLSCAASGFTFRSFGMSWVRQAPGKGPEWVSSISGSGSDTLYADSVKGRFTISRDNSKNTLYLQMNSLRPEDTALYYCTIGGSLSRSSQGTLVTVSSGGGGSGGGSEVQLVESGGGVVQPGGSLRLSCAASGFSLDYYGVGWFRQAPGKEREGVSCISSSEGDTYYADSVKGRFTISRDNAKNTVYLQMNSLRPEDTALYYCATDLSDYGVCSRWPSPYDYWGQGTLVKVSSGGGGSGGGSEVQLVESGGGVVQPGGSLRLSCTASGFTFSTADMGWFRQAPGKGREFVARISGIDGTTYYDEPVKGRFTISRDNSKNTVYLQMNSLRPEDTALYYCRSPRYADQWSAYDYWGQGTLVKVSS
B3: F027201061 (bispecific antibody)
chain: EVQLVESGGGVVQPGGSLRLSCTASGFTFSTADMGWFRQAPGKGREFVARISGIDGTTYYDEPVKGRFTISRDNSKNTVYLQMNSLRPEDTALYYCRSPRYADQWSAYDYWGQGTLVKVSSGGGGSGGGSEVQLVESGGGVVQPGGSLRLSCAASGFTLAYYAIGWFRQAPGKEREGVSCISGSVGTTYYADSVKGRFTISRDNAKNTVYLQMNSLRPEDTALYYCVRSSWFDCGVQGRDLGNEYDYRGQGTLVTVSSGGGGSGGGSEVQLVESGGGVVQPGGSLRLSCAASGFTFRSFGMSWVRQAPGKGPEWVSSISGSGSDTLYADSVKGRFTISRDNSKNTLYLQMNSLRPEDTALYYCTIGGSLSRSSQGTLVTVSSGGGGSGGGSEVQLVESGGGVVQPGGSLRLSCAASGFSLDYYGVGWFRQAPGKEREGVSCISSSEGDTYYADSVKGRFTISRDNAKNTVYLQMNSLRPEDTALYYCATDLSDYGVCSRWPSPYDYWGQGTLVKVSS
B4: F027201029 (bispecific antibody)
chain: EVQLVESGGGVVQPGGSLRLSCTASGFTFSTADMGWFRQAPGKGREFVARISGIDGTTYYDEPVKGRFTISRDNSKNTVYLQMNSLRPEDTALYYCRSPRYADQWSAYDYWGQGTLVKVSSGGGGSGGGSDVQLVESGGGVVQPGGSLRLSCAASGRTFSNYAMAWFRQAPGKEREFVAVISYAGGRTYYADSVKGRFTISRDNAKNTVYLQMNSLRPEDTALYYCAAVDSPLIATHPRGYDYWGQGTLVTVSSGGGGSGGGSEVQLVESGGGVVQPGGSLRLSCAASGFTFRSFGMSWVRQAPGKGPEWVSSISGSGSDTLYADSVKGRFTISRDNSKNTLYLQMNSLRPEDTALYYCTIGGSLSRSSQGTLVTVSSGGGGSGGGSEVQLVESGGGVVQPGGSLRLSCAASGIIFSINAMGWYRQAPGKQRELVADIFPFGSTEYADSVKGRFTISRDNAKNTVYLQMNSLRPEDTALYYCHSYDPRGDDYWGQGTLVTVSS
B5: F027200925 (bispecific antibody)
chain: DVQLVESGGGVVQPGGSLRLSCTASGFTFSTADMGWFRQAPGKGREFVARISGIDGTTYYDEPVKGRFTISRDNSKNTVYLQMNSLRPEDTALYYCRSPRYADQWSAYDYWGQGTLVTVSSGGGGSGGGSEVQLVESGGGVVQPGGSLRLSCAASGIIFSINAMGWYRQAPGKQRELVADIFPFGSTEYADSVKGRFTISRDNAKNTVYLQMNSLRPEDTALYYCHSYDPRGDDYWGQGTLVTVSSGGGGSGGGSEVQLVESGGGVVQPGGSLRLSCAASGFTFRSFGMSWVRQAPGKGPEWVSSISGSGSDTLYADSVKGRFTISRDNSKNTLYLQMNSLRPEDTALYYCTIGGSLSRSSQGTLVTVSSGGGGSGGGSEVQLVESGGGVVQPGGSLRLSCAASGRTFSSYVMGWFRQAPGKEREFVSTINWAGSRGYYADSVKGRFTISRDNAKNTVYLQMNSLRPEDTALYYCAASAGGFLVPRVGQGYDYWGQGTLVKVSSA
B6: F027200166 (bispecific antibody)
chain: EVQLVESGGGVVQPGGSLRLSCAASGIIFSINAMGWYRQAPGKQRELVADIFPFGSTEYADSVKGRFTISRDNAKNTVYLQMNSLRPEDTALYYCHSYDPRGDDYWGQGTLVTVSSGGGGSGGGSEVQLVESGGGVVQPGGSLRLSCAASGFTLAYYAIGWFRQAPGKEREGVSCISGSVGTTYYADSVKGRFTISRDNAKNTVYLQMNSLRPEDTALYYCVRSSWFDCGVQGRDLGNEYDYRGQGTLVTVSSGGGGSGGGSEVQLVESGGGVVQPGGSLRLSCAASGFTFRSFGMSWVRQAPGKGPEWVSSISGSGSDTLYADSVKGRFTISRDNSKNTLYLQMNSLRPEDTALYYCTIGGSLSRSSQGTLVTVSSGGGGSGGGSEVQLVESGGGVVQPGGSLRLSCTASGFTFSTADMGWFRQAPGKGREFVARISGIDGTTYYDEPVKGRFTISRDNSKNTVYLQMNSLRPEDTALYYCRSPRYADQWSAYDYWGQGTLVKVSS
B7: F027201060 (bispecific antibody)
chain: EVQLVESGGGVVQPGGSLRLSCAASGFTLAYYAIGWFRQAPGKEREGVSCISGSVGTTYYADSVKGRFTISRDNAKNTVYLQMNSLRPEDTALYYCVRSSWFDCGVQGRDLGNEYDYRGQGTLVTVSSGGGGSGGGSEVQLVESGGGVVQPGGSLRLSCAASGFTFRSFGMSWVRQAPGKGPEWVSSISGSGSDTLYADSVKGRFTISRDNSKNTLYLQMNSLRPEDTALYYCTIGGSLSRSSQGTLVTVSSGGGGSGGGSEVQLVESGGGVVQPGGSLRLSCAASGFSLDYYGVGWFRQAPGKEREGVSCISSSEGDTYYADSVKGRFTISRDNAKNTVYLQMNSLRPEDTALYYCATDLSDYGVCSRWPSPYDYWGQGTLVKVSSGGGGSGGGSEVQLVESGGGVVQPGGSLRLSCTASGFTFSTADMGWFRQAPGKGREFVARISGIDGTTYYDEPVKGRFTISRDNSKNTVYLQMNSLRPEDTALYYCRSPRYADQWSAYDYWGQGTLVKVSS
B8: F027200929 (bispecific antibody)
chain: EVQLVESGGGVVQPGGSLRLSCAASGRTFSSYVMGWFRQAPGKEREFVSTINWAGSRGYYADSVKGRFTISRDNAKNTVYLQMNSLRPEDTALYYCAASAGGFLVPRVGQGYDYWGQGTLVTVSSGGGGSGGGSEVQLVESGGGVVQPGGSLRLSCAASGFTFRSFGMSWVRQAPGKGPEWVSSISGSGSDTLYADSVKGRFTISRDNSKNTLYLQMNSLRPEDTALYYCTIGGSLSRSSQGTLVTVSSGGGGSGGGSEVQLVESGGGVVQPGGSLRLSCAASGFSLDYYGVGWFRQAPGKEREGVSCISSSEGDTYYADSVKGRFTISRDNAKNTVYLQMNSLRPEDTALYYCATDLSDYGVCSRWPSPYDYWGQGTLVKVSSGGGGSGGGSEVQLVESGGGVVQPGGSLRLSCTASGFTFSTADMGWFRQAPGKGREFVARISGIDGTTYYDEPVKGRFTISRDNSKNTVYLQMNSLRPEDTALYYCRSPRYADQWSAYDYWGQGTLVKVSS

Experiments:
Assay in all cases: cell-based or functional assay
[1] = molecular target: T2, human TNF-α (human, UniProt P01375 77-233)
T2 sequence (P01375 77-233 limits assumed): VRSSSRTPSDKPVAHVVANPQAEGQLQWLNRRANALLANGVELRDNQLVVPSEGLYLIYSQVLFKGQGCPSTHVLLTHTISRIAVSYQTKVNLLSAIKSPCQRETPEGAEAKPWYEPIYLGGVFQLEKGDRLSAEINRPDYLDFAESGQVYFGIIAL

[2] = molecular target: T3, cyno TNF-α (cynomolgus monkey, UniProt P79337 77-233)
T3 sequence (P79337 77-233 limits assumed): as the sequence (P01375 77-233 limits assumed) above, with L37V, R44T, T72N, R138L counted along it

[3] = molecular target: T1, cyno IL-6
[4] = molecular target: T4, human IL-6 (human, UniProt P05231 30-212)
[5] = molecular target: T2, human TNF-α; remark: listed apart in the source
[6] = molecular target: T3, cyno TNF-α; remark: listed apart in the source
[7] = molecular target: T1, cyno IL-6; remark: listed apart in the source
[8] = molecular target: T4, human IL-6; remark: listed apart in the source

Binder | IC50 hTNF-α Nfkb assay [1] | Ratio IC50 cyno TNFα/hTNFα [2] | Ratio IC50 cyno IL-6/hIL-6 [3] | IC50 hIL-6 TF1 proliferation assay [4] | Ratio IC50 reference anti-TNF-α mAb/Nb [5] | hTNF-α Nfkb assay (IC50, pM) [5] | cyno TNF-α NFkb assay (IC50, pM) [6] | cyno IL-6 TF1 proliferation assay (IC50, pM) [7] | Ratio IC50 reference anti-IL-6 mAb1/Nb [8] | hIL-6 TF1 proliferation assay (IC50, pM) [8]
B1 | 141 pM | 2.3 ratio | 0.9 ratio | 68.2 pM | 0.91 ratio | 141 pM | 329 pM | 61 pM | 1.7 ratio | 68 pM
B2 | 206 pM | 1.7 ratio | 0.7 ratio | 72 pM | 0.62 ratio | 206 pM | 360 pM | 54 pM | 1.7 ratio | 72 pM
B3 | 71.2 pM | 2.5 ratio | 0.7 ratio | 147 pM | 0.91 ratio | 71 pM | 176 pM | 101 pM | 2.7 ratio | 147 pM
B4 | 68.5 pM | 2 ratio | 0.6 ratio | 347 pM | 0.83 ratio | 69 pM | 139 pM | 209 pM | 5.3 ratio | 347 pM
B5 | 64.3 pM | 4.1 ratio | 2.8 ratio | 610 pM | 1.43 ratio | 64 pM | 265 pM | 1710 pM | 14.8 ratio | 610 pM
B6 | 160 pM | 3.3 ratio | 10 ratio | 2250 pM | – | – | – | – | – | –
B7 | 100 pM | 1.8 ratio | 0.4 ratio | 127 pM | 0.67 ratio | 100 pM | 176 pM | 49 pM | 2.3 ratio | 127 pM
B8 | 85.8 pM | 3.2 ratio | 1 ratio | 73.8 pM | – | – | – | – | – | –
